Data from article PMC9578707, “Identification of orphan ligand-receptor relationships using a cell-based CRISPRa enrichment screening platform” (eLife, 2022).

What was measured:
Conditions in all cases: both partners purified
[1] = molecular target: T1, growth arrest specific 1 protein (human, UniProt P54826 40-317, biotin (biotinylated in vitro with BirA) where used on beads or as tetramer); assay: SPR; Biacore T100; biotinylated receptor ECD or hit protein captured on a streptavidin chip (~100-200 RU), non-biotinylated secreted ligand as analyte in twofold dilutions; HBS-P+ buffer; 1:1 Langmuir model or equilibrium fit
T1 construct: growth arrest specific 1, human; also called GAS1; source: Expi293F, purified (Ni-NTA, SEC); not shown: AviTag, C-terminal, kept
T1 sequence (looked up): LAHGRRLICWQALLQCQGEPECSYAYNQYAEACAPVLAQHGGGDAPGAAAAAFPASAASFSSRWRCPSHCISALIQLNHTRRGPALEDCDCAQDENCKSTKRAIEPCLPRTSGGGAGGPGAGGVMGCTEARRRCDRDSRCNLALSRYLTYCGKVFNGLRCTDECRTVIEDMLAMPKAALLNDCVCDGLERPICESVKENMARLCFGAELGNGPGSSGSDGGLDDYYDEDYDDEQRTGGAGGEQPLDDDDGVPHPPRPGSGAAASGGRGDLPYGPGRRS

[2] = molecular target: T2, PTPRU-ECD (receptor protein tyrosine phosphatase U, extracellular domain) (human, UniProt Q92729 19-749, biotin (BirA biotinylation; captured on streptavidin chip)); assay: SPR; Biacore T100; biotinylated ligand captured on a streptavidin (SA) Series S chip (~100-200 RU); non-biotinylated analyte in twofold dilutions in HBS-P+; 60 s injection at 30 ul/min, 240 s dissociation; regeneration 2 x 10 sec 2M MgCl2; kinetic fit with a 1:1 binding (Langmuir) model
T2 construct: receptor-type protein tyrosine phosphatase U (PTPRU, R2B subfamily), human, extracellular domain; source: Expi293F, purified (Ni-NTA, SEC), biotinylated in vitro with BirA
T2 sequence (looked up): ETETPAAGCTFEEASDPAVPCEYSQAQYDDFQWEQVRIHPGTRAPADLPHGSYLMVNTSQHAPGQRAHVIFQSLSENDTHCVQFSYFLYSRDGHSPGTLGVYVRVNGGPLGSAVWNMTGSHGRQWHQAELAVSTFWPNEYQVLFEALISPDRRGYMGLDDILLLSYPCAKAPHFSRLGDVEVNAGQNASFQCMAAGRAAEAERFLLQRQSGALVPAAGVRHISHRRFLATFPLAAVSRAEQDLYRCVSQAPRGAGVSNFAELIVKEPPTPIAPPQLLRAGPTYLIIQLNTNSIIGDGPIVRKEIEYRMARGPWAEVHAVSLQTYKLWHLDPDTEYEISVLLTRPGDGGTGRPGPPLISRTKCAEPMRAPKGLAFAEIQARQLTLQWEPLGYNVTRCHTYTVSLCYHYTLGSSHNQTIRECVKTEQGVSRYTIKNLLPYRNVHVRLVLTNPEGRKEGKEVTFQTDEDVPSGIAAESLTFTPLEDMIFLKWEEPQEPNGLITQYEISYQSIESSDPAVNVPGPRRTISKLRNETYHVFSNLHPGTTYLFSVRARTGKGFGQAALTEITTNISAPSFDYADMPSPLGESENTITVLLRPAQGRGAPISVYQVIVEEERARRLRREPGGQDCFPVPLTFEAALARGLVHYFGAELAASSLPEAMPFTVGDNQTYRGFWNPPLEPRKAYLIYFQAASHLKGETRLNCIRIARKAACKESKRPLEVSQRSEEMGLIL

[3] = molecular target: T2, PTPRU-ECD (receptor protein tyrosine …); assay: as above; remark: listed apart in the source

B1: PTPRA-ECD (domain or fragment, human, UniProt P18433 20-151, looked up)
chain: NNATTVAPSVGITRLINSSTAEPVKEEAKTSNPTSSLTSLSVAPTFSPNITLGPTYLTTVNSSDSDNGTTRTASTNSIGITISPNGTWLPDNQFTDARTEPWEGNSSTAATTPETFPPSGNSDSKDRRDETP
modifications: biotin (captured on the streptavidin chip)
notes: PTPRA, human, extracellular domain; construct of the ECD is not described; source: Expi293F, purified (Ni-NTA, SEC)
With B1 the Kd [1] was about 1000 nM.

B2: Osteocrin (OSTN) (ligand, human, UniProt P61366 28-133, looked up)
chain: VDVTTTEAFDSGVIDVQSTPTVREEKSATDLTAKLLLLDELVSLENDVIETKKKRSFSGFGSPLDRLSAGSVDHKGKQRKVVDHPKRRFGIPMDRIGRNRLSNSRG
notes: Osteocrin (OSTN, Musclin), human; also called Musclin; source: Expi293F, purified (Ni-NTA, SEC), not biotinylated (SPR analyte)
For B2, the Kd [2] was 12.7 nM, the koff [2] was 0.00368 s⁻¹ and the kon [2] was 290000 M⁻¹ s⁻¹.

B3: oligodendrocyte-myelin glycoprotein (OMG) (ligand, human, UniProt P23515 25-417, looked up)
chain: ICPLQCICTERHRHVDCSGRNLSTLPSGLQENIIHLNLSYNHFTDLHNQLTQYTNLRTLDISNNRLESLPAHLPRSLWNMSAANNNIKLLDKSDTAYQWNLKYLDVSKNMLEKVVLIKNTLRSLEVLNLSSNKLWTVPTNMPSKLHIVDLSNNSLTQILPGTLINLTNLTHLYLHNNKFTFIPDQSFDQLFQLQEITLYNNRWSCDHKQNITYLLKWMMETKAHVIGTPCSTQISSLKEHNMYPTPSGFTSSLFTVSGMQTVDTINSLSVVTQPKVTKIPKQYRTKETTFGATLSKDTTFTSTDKAFVPYPEDTSTETINSHEAAAATLTIHLQDGMVTNTSLTSSTKSSPTPMTLSITSGMPNNFSEMPQQSTTLNLWREETTTNVKTPLPS
notes: oligodendrocyte-myelin glycoprotein (OMG), human; source: Expi293F, purified (Ni-NTA, SEC), not biotinylated (SPR analyte)
With B3 the Kd [3] was 70.6 nM, the koff [3] was 0.000472 s⁻¹ and the kon [3] was 6690 M⁻¹ s⁻¹.
